# Assay: yeast display, Sf9 membrane polyspecificity reagent, FACS + sequencing; frameworks hold sequencing errors
# In short: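 A nanobody's polyreactivity label depends on the gate it was sorted from. Yeast display cells were stained with 10% biotinylated, detergent-solubilized Sf9 membrane reagent for 1 hour at 4 °C, enriched on streptavidin microbeads and sorted by FACS. The low and high (top ~1%) gates were set on anti-HA fluorescence for expression and streptavidin fluorescence for reagent binding.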
row,Sequence,polyreactivity (PSR sort gate)
1,QVQLVESGGGLVQAGGSLRLSCAASGNIFGGYAMGWYRQAPGKERELVATIRDRGGSTYYADSVKGRFTISRDNAKNSVYLQMNSLKPEDTAVYYCNPRFRTYRLTMEYWGQGTQVTVSS,high polyreactivity
2,QVQLVESGGGLVQAGGSLRLSCAASDTPSSSMLMGWYRQAPGKERQLVAAISGSDGTTYYADSVKGRFTISRDNAKNTVYLQMNSLKPEDTAVYYCAADDRVDSGYIKDDYWGQGTQVTVSS,low polyreactivity
3,QVQHVESGGGLVQAGGSLRLSCAASGFTYRRYAMGWYRQSPGKERELVAAISYRGGTYYADSVKGRFTISRDKAKNTLYLQMTSLIPEDTAVYYCNARYRGKYSSYGYWGQGTQVTVSS,high polyreactivity
4,QVQLVESGGGLVQAGGSLRLSCAASGRIFDDNAMGWYRQAPGKERELVAAISSGDSTKYADSVKGRFTISRDNAKNTVYLQMNSLKPEDTAVYYCNRRKTNSRYDYWGQGTQVTVSS,low polyreactivity
5,QVQLVESGGGLVQAGGSLRLSCAASGRTFRVYAMGWYRQAPGKEREFVAAISYSGGRTYYADSVKGRFTISRDNAKNTVYLQMNSLKPEDTAVYYCAKRVPYGRGVTGYYWGQGTQVTVSS,high polyreactivity
6,QVQLVESGGGLVQAGGSLRLSCAASGSIFKYNAMGWYRQAPGKERELVAAISNDGGRTYYADSVKGRFTISRDNAKNTVYLQMNSLKPEDTPVYDGNVVRVRYYWWEFDYWGQGTQVTVSS,high polyreactivity
7,QVQLEESGGGLVQAGGSLRLTCAPSGTTFSRYVMGWYRQAPGKERELVAAINRSSGSTYYADSVKGRFTISRDNAKNTVYLQMNSLKPEDTAVYYCAALYRKRGSVQYDYWGQGTQVTVSS,high polyreactivity
8,QVQLVESGGGLVQAGGSLRLSCAASGSIFSYYAMGWYRQAPGKERELVAAITTSGGSTYYADSVKGRFTISRDNAKNTVYLQMNSLKPEDTAVYYCAVDQYDRTTAFWYWYPYYYWGQGTQVTVSS,low polyreactivity
9,QVQLVESGGGLVQAGGSLRLSCDASGNIFYPNAMGLYRQAPGKERELVAAISSSGGSTYYADSVKGRFTISRDNAKNTVYLQMNSLKPEDTAVYYFAKDRSYAYYLWPYPTGYDYWGQGTQVTVSS,low polyreactivity
10,QVQLVESGGGLVQAGGSLRLSCAASGSIFRRYTMGWYRQAPGKERELVAAISRVGNTNYADSVKGRFTISRDNAKNTVYLQMNSLKPEDTAVYYCAADLYWLLYDEDWYWWEYESDSWGQGTQVTVSS,high polyreactivity
11,QVQLVESGGGLVQAGGSLRLSCAASGSIFYVYAMGWYRQAPGKERELVAAISDDGDTYYADSVKGRFTISRDNAKNTVYLQMNSLNPEDTAVYYCAAEGGANEENSSPEYDYWGQGTQVTVSS,low polyreactivity
12,QVQLVESGGGLVQAGGRLRISCAASGFSFFSNAMGWYRQAPGKERELVAVIDRATSTYYADSVKGRFTISRDNAKNTVYLQMNSLKPEDTAVYYCNADGEEVYDFNYFLSFKGDYWGQGTQVTVSS,low polyreactivity
13,QVLLVESGGGLVQAGGSLRIICAASGLTFSDYAMRWYRQAPGKERELVAGISSGGSTYYADSVKGRFTISRDNAKNTVYLQMNSLKPEDTAVYYCAATRYNRWPIKFDYWGQGTQVTVSS,high polyreactivity
14,QVQLVESGGGLVQAGGSLRLSCAASGFIFVYYGMVWYRQAPGKERELVAAISRSGGSTYYADSVKGRFTISRDNAKNTVYLQMNSLKPEDTAVYYCNVVRWYYHPPLTGSRFDYWGHGTQVTVSS,high polyreactivity
15,QVQLVESGGGLVQAGGSLRLSCAASGSTFGYYAMGWYRQAPGKERELVASISSRGGSTYYADSVKGRFTISRDNAKNTVYLQMNSLKPEDTAVYSCAARYGGFPVPGRYNYWGQGTQVTVSS,high polyreactivity
16,QVQLVESGGGLVQAGGSLRLICAASGRIFQIYAMGWYRQAPGKEREVVAAISSGGTTYYADSVKGRFTISRDNAKNTVYLQMNSLKPEDTAVYYCAAVAWDLYSDGQEYNYWGQGPQVTVSS,high polyreactivity

row,Sequence,polyreactivity (PSR sort gate)
1,QVQLVESGGGLVQAGGSLRLSCPASGSTISGNTMGWYRHDPGKERELVAAISFRSGRTYYADSVKGRFTISRDNAKNTGYLQMNSLIPEDTAVYYCNAEIYTYRTGRGYSRMDYWGQGSQVTVSS,high polyreactivity
2,QVQLVESSGGLVQAGGSLRLSCAASGRTFTSNAMGWYRQAPGKERELVAAISNGGSTYYADSVKGRFTISRDNAKNTVYLQMNSLKPEDTAVYYCAAQYRVLWYSYYYWGQGTQVTVSS,high polyreactivity
3,QVQLVESGGGLVQAGGSLRISCAASGRIFLRNDMGWYRQAPGKERELVAGISSDGSTYYADSVKGRFTISRDNAKNTVYLQMNSLKPEDTAVYYCAAERWGNPTDYQFWRPYDYWGQGTQVTVSS,low polyreactivity
4,QVQLGESGGGLVQAGGSLLLSSAASGFIFHNYPMGWYRQAPVKERELVAAISWSGSRTYYADSVKGRFTISRDNAKNSVYLQMNSLKPEDTAVYYCNKAPSWWDVRVPFDYWGQGTQVTVSS,low polyreactivity
5,QVQLVESGGGLVQAGGSLRLSCAASGRIFAGYVMGWYRQAPGKERELVAAISGSGASTYYADSVKGRFTISRDNAKNTVYLQMNSLKPEDTAVYYCAADKPGIFSRFDYWGQGTQVTVSS,low polyreactivity
6,QVHLVDSGGGLVQAGGSLRLSCAASGYTFIAYTMGWYRQAPGKERELVAAITTGGRTYYADSVKGRFTISRDNAKNTVYLQMNSLKPEDTAVYYCAAYYSARYKYGGVDYWGQGTQVTVSS,high polyreactivity
7,QVQLVESGGGLVPAGGSLRFSCAASGMTFFVNDRGSYRQAPGKERELLAVISFTGDSTFYADSVKGRFTISRDKAQNTVSLQMHSLKPEETAVYYSAADFRRGFSKYSYYLYFDFDYWGQGTQVTVSS,low polyreactivity
8,QVQLVESGGGLVQAGGSLRLSCAASGRIFDYYAMGWYRQAPGKERELVAAISSSVGNTYYADSVKGRFTISRDNAKNSVYLQINSLKQEDTAVYYCADYSYVRSSYEVEYDYWGQGTQVTVSS,low polyreactivity
9,QVHLVESGGGLVQEGGSLPLTCAASGSTLRYYDMGWYRQPPRKERELFAAITTSGDDTYYADSVKRLFTISRDNAKYIVYLQMNSLKPEDTAVYYCAADGYGGHKYELESWGQGTQVTVSS,low polyreactivity
10,QVQLVESGGGLDQAGGSLRLSCAASGLIFYAYTMGWYRQAPWKERELVAAINYSGGSTYYADSVKGRFTISRDNAKNTVYLQMNSLKPEDTAVYYCATRTGHWGQGTQVTVSS,low polyreactivity
11,QVQLVESGGGLVQAGGRLRLSCAASGFTFYRYPMGWYRQAPGTERELVAAITWSGGSTYYADSVKGRFTISRDTAMNTVYLQMNSLKPEDTAVYYCAADIYDGGFDYWGQGTQVTVSS,low polyreactivity
12,QVQLVESGGGLVQAGGSLRLSCAASGFTFDSYAMGWYRQAPGKERELVAAISYRGGTTYYADSVKGRFTISRDNAKNTVYLQMNSLKPEDTAVYYCATPYKYVTGEDYWGQGTQVTVSS,high polyreactivity
13,QVQLVESGGGLVQAGGSLRLSCAASGSIFTTYTMGWYRQAPGKERELVAAITTSSGSTYYADSVKGRFTISRDNAKNTVYLQMNSLKPEDTAVYSCNATYSAAVDYWGQGTQVTVSS,low polyreactivity
14,QVQLVESGGGLVQAGGSLRLSCAASGRTCAYNAMGWYRQAPGKERELVAAITDSDGNTYYADSVKGRFTISRDNAKNTVYLQMNSLKPEDTAVYYCAADYIILDHVTRGFGYEYWGQGTQVTVSS,low polyreactivity
15,QVQLVESGGGLVQAGGILRLSCAASGSTFAVYAMGWYRQAPGKERELVAAISRSGGRTYYADSVKGRFTISRDNAKNTVYLQMNCLKPDDTAVYYCAAPSTCSYGSDYWGPGTQVTVSS,high polyreactivity

# Reference: the nanobody polyreactivity screen of Harvey et al. (2022)
